# According to patent US20260265360A1, “USE OF ANTI-FAM19A5 ANTAGONISTS FOR TREATING HEARING DISORDERS” (NEURACLE SCIENCE CO., LTD., priority 2023, published 2026):
# B1: 1-30: anti-FAM19A5 antibody, de-immunized variant of 3-2; VH SEQ ID NO: 235, VL SEQ ID NO: 240 (antibody, V domains shown)
# VH: AVTLDESGGGLQTPGGALRLSCKASGFDFESFNMFWVRQAPGKGLEYVSQISSSEEDENYAPAVKGRATISRDNGQSTLYLQMNSLRAEDTGTYYCAKSSYDCPYGHCSSGVDSAGEIDAWGHGTEVIVSS
# VL: ALTQPSSVSANPGETVKITCSGGGSEEEQYYYGWYQQKPGSAPVTLIYQDEERPSDIPSRFSGSTSGSTATLTITGVQAGDEADYYCGSWDSEDEDHFGAGTTLTVL
# modifications: Low-PI VH, 1-30 VH, 1-17 VH, 1-32 VH, 4-11 VH, 6-10 VH; 1-30 VL
# System: noise-induced hearing loss mouse model
# Assay: Noise-induced hearing loss mouse model, first antibody dose one day prior to noise exposure
# Assay type: in vivo
# Procedure: FIGS. 6A, 6B, 6C, 6D, and 6E show the therapeutic effect of FAM19A5 antagonists on auditory brainstem response (ABR) threshold in a noise-induced hearing loss mouse model. FIG. 6A provides a schematic of the experimental design. As shown, anti-FAM19A5 antibody (1-30) or control human IgG antibody was administered to the mice intravenously once a week (30 mg/kg per dose) for a total of five administrations. The first dose of the antibodies was administered one day before noise exposure. For noise-induced hearing loss induction, the animals were subjected to temporary threshold shift (TTS) of 105 decibels for 30 minutes. ABR (i.e., hearing test) was measured both prior to the initial administration of the antibodies and then at various times after administration. FIGS. 6B, 6C, 6D, and 6E provide comparison of ABR threshold between mice administered with the control human IgG (circle), anti-FAM19A5 antibody (square), or before noise (triangle) at the following time points: (i) before TTS exposure, (ii) 1 day after TTS exposure, (iii) 2 weeks after TTS exposure, (iv) 4 weeks after TTS exposure, and […], respectively. ABR threshold was measured at a frequency ranging from 4 kHz to 64 kHz.
# FIGS. 7A, 7B, 7C, and 7D show the therapeutic effect of FAM19A5 antagonists on distortion product […] emission (DPOAE) threshold in a noise-induced hearing loss mouse model. The overall experimental design is the same as that described in FIG. 6A. DPOAE threshold data was measured after antibody administration and: (i) before TTS exposure (FIG. 7A), (ii) 1 day after TTS exposure (FIG. 7B), (iii) 2 weeks after TTS exposure (FIG. 7C), and (iv) 4 weeks after TTS exposure (FIG. 7D). DPOAE threshold was measured at a frequency ranging between about 4 kHz to about 32 kHz.
# FIGS. 8A and 8B show the effect of FAM19A5 antagonists on distortion product […] emission (DPOAE) amplitude in a noise-induced hearing loss mouse model. The overall experimental design is the same as that described in FIG. 6A. DPOAE amplitude data was measured after antibody administration at 2 weeks after TTS exposure. FIG. 8A provides a comparison of the average DPOAE amplitude value as a function of different noise level for the following groups: (i) before noise (triangle), (ii) control antibody treated (circle), and (iii) anti-FAM19A5 treated (square). FIG. 8B provides a spectral level profile for each of the groups.
# FIGS. 11A and 11B show the effect of FAM19A5 antagonists on ABR I/O function in a noise-induced hearing loss mouse model. The overall experimental design is the same as that described in FIG. 6A. FIG. 11A provides wave I amplitude before noise (left graph) and at 2 weeks after noise (right graph).
# FIG. 11B provides wave I amplitude at 4 weeks after noise. For each of FIGS. 11A and 11B, the following groups of animals are shown: (i) control antibody treated (circle) and (ii) anti-FAM19A5 antibody treated (square). For comparison purposes, wave I amplitude before noise exposure is also provided at the 2 weeks and 4 weeks timepoints (“BN”).
# FIGS. 12A and 12B provide immunohistochemistry (IHC) analysis of the therapeutic effects of anti-FAM19A5 antibody (1-30) and control human IgG antibody administration in the middle cochlear region 8 weeks after temporary threshold shift (TTS) (i.e., noise induction).
# To assess whether the FAM19A5 antagonists described herein can treat hearing loss, a noise-induced hearing loss mouse model was used. Briefly, for hearing loss induction, the animals were exposed to a temporary threshold shift (TTS) of 105 decibels for 30 minutes. An anti-FAM19A5 antibody (1-30 antibody) or a control human IgG antibody was intravenously administered to C57BL/6 mice (8 weeks old) once weekly for 5 total administrations (30 mg/kg per dose). […] To assess the effect on hearing loss, ABR threshold, DPOAE threshold, and/or DPOAE amplitude were measured at various time points (see “hearing test” in FIG. 6A). […]
molecule,measurement,setting,value
B1,DPOAE amplitude vs control antibody,"2 weeks after TTS exposure, about 18 kHz frequency",higher DPOAE amplitude
same,number of ribbon bodies per cell in IHC and OHC vs hIgG,8 weeks after TTS,increased number of ribbon bodies per cell
same,ABR threshold values vs values prior to TTS exposure,"all time points assessed after TTS, 30 mg/kg i.v. weekly x5, first dose one day before noise",comparable to corresponding values prior to the TTS exposure
same,DPOAE threshold values vs control IgG antibody,"before and 1 day, 2 weeks, 4 weeks after TTS, 30 mg/kg i.v. weekly",no noticeable differences
same,"increase in ABR threshold after TTS exposure, vs control antibody","day 1 post TTS (105 dB, 30 min), 30 mg/kg i.v. weekly x5, first dose one day before noise",much more dramatic in animals treated with the control antibody
same,ABR wave I amplitude vs control antibody,four weeks post noise exposure,noticeable differences were observed
same,expression of CtBP2 (cochlear ribbon synapse marker) in the IHC vs control antibody,"middle cochlear region, 8 weeks after TTS",noticeable increase
same,ABR wave I amplitude vs control antibody,two weeks post noise exposure,noticeable differences were observed
